Ten molecules from patent US10597674B2, “HPPD variants and methods of use” (BASF Agricultural Solutions Seed, US LLC, priority 2015, dated 2020) can be followed below.

For data set [1], the system named is E. coli cells expressing an HPPD polypeptide. The experiment in a line: Brown color bioassay in liquid culture, residual brown color formation (BCF), OD440 after 96 hours. It counts as cell-based. The following applies: for Control BCF OD440nm: brown color formation in absence of Cmpd. 1, culture supernatant after 96 hours, 5 mM HPP; for Residual BCF OD440nm [%]: brown color formation with Cmpd. 1 (1000 μM) relative to without, after 96 hours. How it is done: In an additional experiment, mutant HPPD polypeptides were analyzed using the principle of a colorimetric brown color assay (as, for example, described in U.S. Pat. No. 6,768,044). Bacterial cells expressing the HPPD polypeptides according to this invention were assayed in 96 well plate format (Nunc® 96 DeepWell™ plate, Sigma-Aldrich, St. Louis, USA) for HPPD polypeptides with improved HPPD inhibitor herbicide tolerance.
E. coli cells were grown in liquid LB medium (Carl Roth GmbH+Co. KG, Karlsruhe, Germany) containing the selection agent for the expression vector pSE420(RI)NX (WO2014/043435) and 5 mM para-hydroxyphenylpyruvate (HPP; Sigma-Aldrich, St. Louis, USA), in the presence of absence of the HPPD inhibitor herbicide e.g. Cmpd. 1 (1000 μM). An overnight culture of E. coli culture expressing one of the respective HPPD polypeptides according to this invention were adjusted to an OD600 of 0.3-0.5 in a final volume of 500 μL and incubated at 30 degree Celsius. Residual brown color formation was determined by measuring the brown color formation (BCF) in the presence and absence of Cmpd. […] Therefore, after 96 hours the culture was centrifuged and the supernatant of the culture was used to measure the optical density of the soluble brown pigment formation at 440 nm (OD440 nm).

Data set [2] concerns HPPD polypeptides (wild-type SEQ ID NO:1 and mutants). The following applies: low substrate concentration; for Residual activity: kapp in presence of 50 μM Cmpd. 1, normalised to kapp without inhibitor; for Residual turnover: total change in signal in presence of 50 μM Cmpd. 1, normalised to that without inhibitor.

B1: 86 (protein)
chain: MADLYENPMGLMGFEFIEFASPTPGTLEPIFEIMGFTKVATHRSKNVHLYRQGEINLILNNEPNSIASYFAAEHGPSVCGMAFRVKDSQKAYNRALELGAQPIHIDTGPMELNLPAIKGIGGAPLYLIDRFGEGSSIYDIDFVYLEGVERNPVGAGLKVIDHLTHNVYRGRMVYWANFYEKLFNFREARYFDIKGEYTGLTSKAMSAPDGMIRIPLNEESSKGAGQIEEFLMQFNGEGIQHVAFLTDDLVKTWDALKKIGMRFMTAPGDEYYEMLEGRLPDHGEPVDQLQARGILLDGSSVEGDKRLLLQIFSETLMGPVFFEFIQRKGDDGFGPDSFKQLFESVERDQVRRGVLTAD
modifications: mutant HPPD polypeptide
As for B1, in data set [1], the “Control BCF OD440nm” value is 1.94 and the “Residual BCF OD440nm [%]” value was 74%. Moreover, in data set [2], the Residual activity is given as 23% and the Residual turnover is reported as 45%.

B2: 88 (protein)
chain: MADLYENPMGLMGFEFIEFASPTPGTLEPIFEIMGFTKVATHRSKNVHLYRQGEINLILNNEPNSIASYFAAEHGPSVCGMAFRVKDSQKAYNRALELGAQPIHIDTGPMELNLPAIKGIGGAPLYLIDRFGEGSSIYDIDFVYLEGVERNPVGAGLKVIDHLTHNVYRGRMVYWANFYEKLFNFREARYFDIKGEYTGLTSKAMSAPDGMIRIPLNEESSKGAGQIEEFLMQFNGEGIQHVAFLTDDLVKTWDALKKIGMRFMTAPGDEYYEMLEGRLPDHGEPVDQLQARGILLDGSSVEGDKRLLLQIFSETLMGPVFFEFIQRKGDDGFGPDSFKVLFESIERDQVRRGVLTAD
modifications: mutant HPPD polypeptide
As for B2, in data set [1], the “Control BCF OD440nm” value was 2.21 and the “Residual BCF OD440nm [%]” value stood at 77%. In addition, in data set [2], the Residual activity is reported as 20% and the Residual turnover is reported as 44%.

B3: 92 (protein)
chain: MADLYENPMGLMGFEFIEFASPTPGTLEPIFEIMGFTKVATHRSKNVHLYRQGEINLILNNEPNSIASYFAAEHGPSVCGMAFRVKDSQKAYNRALELGAQPIHIDTGPMELNLPAIKGIGGAPLYLIDRFGEGSSIYDIDFVYLEGVERNPVGAGLKVIDHLTHNVYRGRMVYWANFYEKLFNFREARYFDIKGEYTGLTSKAMSAPDGMIRIPLNEESSKGAGQIEEFLMQFNGEGIQHVAFLTDDLVKTWDALKKIGMRFRTAPGDEYYEMLEGRLPDHGEPVDQLQARGILLDGSSVEGDKRLLLQIFSETLMGPVFFEFIQRKGHDGFGPDSFKVLFESAERDQVRRGVLTAD
modifications: mutant HPPD polypeptide
As to B3, in data set [1], the “Control BCF OD440nm” value came to 1.38 and the “Residual BCF OD440nm [%]” value came out at 59%. In addition, in data set [2], the Residual activity was found to be 61% and the Residual turnover was found to be 81%.

B4: 40 (protein)
chain: MADLYENPMGLMGFEFIEFASPTPGTLEPIFEIMGFTKVATHRSKNVHLYRQGEINLILNNEPNSIASYFAAEHGPSVCGMAFRVKDSQKAYNRALELGAQPIHIDTGPMELNLPAIKGIGGAPLYLIDRFGEGSSIYDIDFVYLEGVERNPVGAGLKVIDHLTHNVYRGRMVYWANFYEKLFNFREARYFDIKGEYTGLTSKMMSAPDGMIRIPLNEESSKGAGQIEEFLMQFNGEGIQHVAFLTDDLVKTWDALKKIGMRFMTAPGDEYYEMLEGRLPDHGEPVDQLQARGILLDGSSVEGDKRLLLQIFSETLMGPVFFEFIQRKGDDGFGPDSFKVLFESVERDQVRRGVLTAD
modifications: mutant HPPD polypeptide
With B4, in data set [1], the “Control BCF OD440nm” value is given as 1.89 and the “Residual BCF OD440nm [%]” value was 58%. In addition, in data set [2], the Residual activity came to 65% and the Residual turnover is 77%.

B5: 67 (protein)
chain: MADLYENPMGLMGFEFIEFASPTPGTLEPIFEIMGFTKVATHRSKNVHLYRQGEINLILNNEPNSIASYFAAEHGPSVCGMAFRVKDSQKAYNRALELGAQPIHIDTGPMELNLPAIKGIGGAPLYLIDRFGEGSSIYDIDFVYLEGVERNPVGAGLKVIDHLTHNVYRGRMVYWANFYEKLFNFREARYFDIKGEYTGLTSKAMSAPDGMIRIPLNEESSKGAGQIEEFLMQFNGEGIQHVAFLTDDLVKTWDALKKIGMRFKTAPGDEYYEMLEGRLPDHGEPVDQLQARGILLDGSSVEGDKRLLLQIFSETLMGPVFFEFIQRKGDDGFGPDSFKVLFESVERDQVRRGVLTAD
modifications: mutant HPPD polypeptide
On to B5, for which, in data set [1], the “Control BCF OD440nm” value worked out at 1.93 and the “Residual BCF OD440nm [%]” value stood at 71%. In data set [2], the Residual activity is given as 73% and the Residual turnover is 96%.

B6: 59 (protein)
chain: MADLYENPMGLMGFEFIEFASPTPGTLEPIFEIMGFTKVATHRSKNVHLYRQGEINLILNNEPNSIASYFAAEHGPSVCGMAFRVKDSQKAYNRALELGAQPIHIDTGPMELNLPAIKGIGGAPLYLIDRFGEGSSIYDIDFVYLEGVERNPVGAGLKVIDHLTHNVYRGRMVYWANFYEKLFNFREARYFDIKGEYTGLTSKAMSAPDGMIRIPLNEESSKGAGQIEEFLMQFNGEGIQHVAFLTDDLVKTWDALKKIGMRFMTAPGDEYYEMLEGRLPDHGEPVDQLQARGILLDGSSVEGDKRLLLQIFSETLMGPVFFEFIQRKGDDGFGPDSFKVLFERVERDQVRRGVLTAD
modifications: mutant HPPD polypeptide
Consider B6, for which, in data set [1], the “Control BCF OD440nm” value came out at 1.29 and the “Residual BCF OD440nm [%]” value is given as 51%. Further, in data set [2], the Residual activity was determined as 19% and the Residual turnover was determined as 46%.

B7: 87 (protein)
chain: MADLYENPMGLMGFEFIEFASPTPGTLEPIFEIMGFTKVATHRSKNVHLYRQGEINLILNNEPNSIASYFAAEHGPSVCGMAFRVKDSQKAYNRALELGAQPIHIDTGPMELNLPAIKGIGGAPLYLIDRFGEGSSIYDIDFVYLEGVERNPVGAGLKVIDHLTHNVYRGRMVYWANFYEKLFNFREARYFDIKGEYTGLTSKAMSAPDGMIRIPLNEESSKGAGQIEEFLMQFNGEGIQHVAFLTDDLVKTWDALKKIGMRFMTAPGDEYYEMLEGRLPDHGEPVDQLQARGILLDGSSVEGDKRLLLQIFSETLMGPVFFEFIQRKGDDGFGPDSFKVLFESAERDQVRRGVLTAD
modifications: mutant HPPD polypeptide
As for B7, in data set [1], the “Control BCF OD440nm” value was found to be 1.91 and the “Residual BCF OD440nm [%]” value came out at 68%. In data set [2], the Residual activity came out at 17% and the Residual turnover was found to be 53%.

B8: 89 (protein)
chain: MADLYENPMGLMGFEFIEFASPTPGTLEPIFEIMGFTKVATHRSKNVHLYRQGEINLILNNEPNSIASYFAAEHGPSVCGMAFRVKDSQKAYNRALELGAQPIHIDTGPMELNLPAIKGIGGAPLYLIDRFGEGSSIYDIDFVYLEGVERNPVGAGLKVIDHLTHNVYRGRMVYWANFYEKLFNFREARYFDIKGEYTGLTSKAMSAPDGMIRIPLNEESSKGAGQIEEFLMQFNGEGIQHVAFLTDDLVKTWDALKKIGMRFMTAPGDEYYEMLEGRLPDHGEPVDQLQARGILLDGSSVEGDKRLLLQIFSETLMGPVFFEFIQRKGDDGFGPDSFKVLFESKERDQVRRGVLTAD
modifications: mutant HPPD polypeptide
As for B8, in data set [1], the “Control BCF OD440nm” value was found to be 2.36 and the “Residual BCF OD440nm [%]” value was 67%. Moreover, in data set [2], the Residual activity was determined as 23% and the Residual turnover was found to be 43%.

B9: 39 (protein)
chain: MADLYENPMGLMGFEFIEFASPTPGTLEPIFEIMGFTKVATHRSKNVHLYRQGEINLILNNEPNSIASYFAAEHGPSVCGMAFRVKDSQKAYNRALELGAQPIHIDTGPMELNLPAIKGIGGAPLYLIDRFGEGSSIYDIDFVYLEGVERNPVGAGLKVIDHLTHNVYRGRMVYWANFYEKLFNFREARYFDIKGEYTGLTSKLMSAPDGMIRIPLNEESSKGAGQIEEFLMQFNGEGIQHVAFLTDDLVKTWDALKKIGMRFMTAPGDEYYEMLEGRLPDHGEPVDQLQARGILLDGSSVEGDKRLLLQIFSETLMGPVFFEFIQRKGDDGFGPDSFKVLFESVERDQVRRGVLTAD
modifications: mutant HPPD polypeptide
With B9, in data set [1], the “Control BCF OD440nm” value came out at 1.63 and the “Residual BCF OD440nm [%]” value was found to be 55%. In data set [2], the Residual activity was found to be 34% and the Residual turnover is recorded as 61%.

B10: 44 (protein)
chain: MADLYENPMGLMGFEFIEFASPTPGTLEPIFEIMGFTKVATHRSKNVHLYRQGEINLILNNEPNSIASYFAAEHGPSVCGMAFRVKDSQKAYNRALELGAQPIHIDTGPMELNLPAIKGIGGAPLYLIDRFGEGSSIYDIDFVYLEGVERNPVGAGLKVIDHLTHNVYRGRMVYWANFYEKLFNFREARYFDIKGEYTGLTSKAMSAPDGMILIPLNEESSKGAGQIEEFLMQFNGEGIQHVAFLTDDLVKTWDALKKIGMRFMTAPGDEYYEMLEGRLPDHGEPVDQLQARGILLDGSSVEGDKRLLLQIFSETLMGPVFFEFIQRKGDDGFGPDSFKVLFESVERDQVRRGVLTAD
modifications: mutant HPPD polypeptide
Regarding B10, in data set [1], the “Control BCF OD440nm” value was found to be 1.60 and the “Residual BCF OD440nm [%]” value is reported as 40%. In data set [2], the Residual activity was determined as 58% and the Residual turnover was determined as 78%.
